Results on 20 sequences are retold here after the DeepSol protein solubility set.

The data set can be described thus: soluble on expression in E. coli; label from the status in PepcDB or PDB records.
In the case of “MNNSRLFRLSRIVIALTAASGMMVNTANAKEEAKAATQYTQQVNQNYAKSLPFSDRQDFDDAQRGFIAPLLDEGILRDANGKVYYRADDYKFDINAAAPETVNPSLWRQSQINGISGLFKVTDKMYQVRGQDISNITFVEGEKGIIVIDPLVTPPAAKAALDLYFQHRPQKPIVAVIYTHSHTDHYGGVKGIISEADVKSGKVQVIAPAGFMDEAISENVLAGNIMSRRALYSYGLLLPHNAQGNVGNGLGVTLATGDPSIIAPTKTIVRTGEKMIIDGLEFDFLMTPGSEAPAEMHFYIPALKALCTAENATHTLHNFYTLRGAKTRDTSKWTEYLNETLDMWGNDAEVLFMPHTWPVWGNKHINDYIGKYRDTIKYIHDQTLHLANQGYTMNEIGDMIKLPPALANNWASRGYYGSVSHNARAVYNFYLGYYDGNPANLHPYGQVEMGKRYVQALGGSARVINLAQEANKQGDYRWSAELLKQVIAANPGDQVAKNLQANNFEQLGYQAESATWRGFYLTGAKELREGVHKFSHGTTGSPDTIRGMSVEMLFDFMAVRLDSAKAAGKNISLNFNMSNGDNLNLTLNDSVLNYRKTLQPQADASFYISREDLHAVLTGQAKMADLVKAKKAKIIGNGAKLEEIIACLDNFDLWVNIVTPN”, the “soluble on expression in E. coli” value is on record as “soluble”.

In the case of “MNNVTFEQLQETLYHEKLANGLDVYILPKTGFNKTYATFTTKYGSIDSEFIPLNQKEALHVPDGIAHFLEHKMFEDEEGDVFQLFSKQGASCNAFTSFTRTAYLFSSTTNVKKNVETLLDFVQHPYFTEESVEKEKGIIGQEITMYDDNPDWRNYFGVIENMYEHHPVKIDIAGTIPSISKITKDLLYTCYETFYHPSNMLLFIVGPVDVNEMMTLVKENQGKKEFKPAGDIQRFFPAEPEKVAKPHSVISMSVQTPKCLVGYKEKQPVRQGKDLLVRELGINVLLELMFGQGSKQYEQLDDEGLINDTFSFDHTSEYGFGFTIMGGDTKSPNRLAERIEEMVEAFKEQPLDEAAVKRVIKKKIGGFLRSLNSPEFIANQFTRYEFNKMNLFDVVPTLESLTVEKLTDILHDHFQKERFTVCQVKPEGYEEG”, the “soluble on expression in E. coli” value is “not soluble”.

Turning to “MNNYLRKLVEGQHLTEEEMYKAGLLLLNENILESEIAAFLVLLKAKGETAEEIYGLVRALREKALPFSNHIQGAMDNCGTGGDGAQTFNISTTSAFVLAGAGVKVAKHGNRAVSSKTGSADLLEELGVNISSTPNEIDYLLEHVGIAFLFAPAMHPALKRIMKIRKELNVPTIFNLIGPLTNPVNLETQFVGIYKRDMLLPVAQVLQKLGRKQALVVNGSGFLDEASLQGENHVVILKDNEIVETSIEPEKYGFSIVKNEEIRGGNSKENAKITLGVLSGEKSVYRDTVLFNAGLALFANGKAKTIEEGITLAAHSIDSGKALAKLNLLIAASNEELERVN”, the “soluble on expression in E. coli” value is given as “not soluble”.

Regarding “MNPEVTVLMSVYNDKNYLSESIESILNQTFENFEFLIINDASTDGSGELLEEYSKKDKRIRLIHNKNNRGLSYSLAEGVSLAKAPWIARMDADDVSFKDRLAVQMDHVKAHSELDILGSYVIDIDDKGNELEIRKVPTTHKEIANLIWTCPFIHPTVLFKKDSIIKAGSYDRNLRRRQDYDLWFRCLEAKLKFENIDKPLLYYRSTDDYYKKNNFKVQVQQAKMGFAGARRVKAKPIAYIGITVAFIKGILPYHIRKPLSQLLKKVDPRRALEHHHHHH”, the “soluble on expression in E. coli” value is on record as “soluble”.

“MNPILTAAKQLLHKEEKILSTLKCSLTGYMITHKVPYPGMLLATNQRLLFFSQYKNTFIAEFDYEKILSIETKRRIFDKKIIFYYEDEYITLGYITSSNVEAFIDLLQRNSKTSTGL”: the “soluble on expression in E. coli” value is reported as “not soluble”.

On to “MNPKEQSSYLYEQYDDALGEQLKPITSQYVLQDLNKNSSKQKAQVVQKVDSEYVLRDLRNQADQNQNFSRDAPNRPFLTGTPVNAKEIRSQIESLDNAIVIPQIINGKVFFTTHGDADARTAVEGSVSNPNLNETNVGASKPEGVDLSKMKFTFAQLVALLGPSTCQRLEREFVKKNRLSDAEMSQLRTARESISELNLATGRSTDTLRTAQSVEPNLLSIRTANSLEPNLLSVYSARSPGVFTKKEGMLTAQSPEPNLLSVRTANSLEPNLLSVKPAKELTTISNLKAQSPGLLTAQSAEPNLLSTRTARSSSNTSLIDTESKDVQTCIEIQSPTTGVLTAQSIATPSGSCQSVFTAKEIESIRSSQDVLTAVEILTDMSRSSQDVRTALEISE”, for which the “soluble on expression in E. coli” value is reported as “not soluble”.

For the sequence “MNQAIGGSFDDVIGNHQADTAMIVQISADRKEINLVSIPRDSLVDVPQCETSKGTIPAQYNVMFNSIFAGAYKTGGDLSSAASCTLNAVNSLTGLNIQNFIVVDFAGLVKMIDSVGGVDLCIPQNVNDPYTGLNLDKGMHHLDGVAATQYARIRHGIGDGSDTSRTTRQQYLIKQLMSEALSKNLFTDTAQLYQLAKSALKSLNISQGMADTAALAGLAMSLKNFTMTNLQTQTVPVVPAPSDPNRSVWTDEADNLWEKMRAGKPIFDTADSNSGGSSDTSSDNSASSDDSGTTDSNQSDTTAETPDPVTGLITKSDGTLVDPSTGGTVDPDDGSIHDATTGQYIGLADRYLNATVCAVPAKNLEHHHHHH”, the “soluble on expression in E. coli” value is listed as “soluble”.

As for “MNQFYKRHFLRLLDFTPAEIIALLDLATELKKDKKSGCEQQKLVGKNIALIFEKDSTRTRCSFEVAAYDQGARVTYLGPGGSQIGHKESIKDTARVLGRMYDGIQYRGYGQRVVETLAEFAGVPVWNGLTDEFHPTQLLADLLTMREHLPNKSLNKMTLAYLGDTRNNMGNSLLEAAALVGMDLRLVAPKACWPEEAFVISCQALAQKTGGKITLTEDIAEGVNGADFLYTDVWVSMGEPKEVWQERINLLKPYQVNMRVLTLTGNPQVKFLHCLPAFHDDQTTIGKQMAEQYDLPGGMEVTEEVFESAHSIVFDQAENRLHTIKAVMVATMSKI”, the “soluble on expression in E. coli” value was “not soluble”.

Turning to “MNQINIEIAYAFPERYYLKSFQVDEGITVQTAITQSGILSQFPEIDLSTNKIGIFSRPIKLTDVLKEGDRIEIYRPLLADPKEIRRKRAAEQAAAKDKEKGA”, the “soluble on expression in E. coli” value is given as “soluble”.

For “MNQPDISTLVQRIEQLELNQSRLRILLSHAPEKHKAFDKACYVANLSFEQEAHVRQTILDFLDSDKEDINELLSSIEAIVRYTVDAKSLISGFKMRGTAPDRWKQIDPHNEC”, the “soluble on expression in E. coli” value was “not soluble”.

Turning to “MNQVTTYLWETHLPGGSHWSGVVRRGTTLRLTDVSGGANAAVLFYNLEEKLERYNMADTLKTQHTFCLTKGHACHSDMGRIFCCITEDTAGWHDTVCGLSDAELIQQKYGTGRYQELRNDMYRNGLDGMLVELGKWGLGRRDVVSNINFFSKVTANSVGELQFHVSHSKAGDHVDLAFAMDTLVVLSAAPHPLDPAATYRPGAVNLAVFPSTPAVTGACAHIAENARGLENTRRLYAYGGVKLEHHHHHH”, the “soluble on expression in E. coli” value was “soluble”.

Turning to “MNRESFAAGERLVSPAYVRQGCEARRSHEHLIRLLLEKGKCPENGWDESTLELFLHELAIMDSNNFLGNCGVGEREGRVASALVARRHYRFIHGIGRSGDISAVQPKAAGSSLLNKITNSLVLDIIKLAGVHTVANCFVVPMATGMSLTLCFLTLRHKRPKAKYIIWPRIDQKSCFKSMITAGFEPVVIENVLEGDELRTDLKAVEAKVQELGPDCILCIHSTTSCFAPRVPDRLEELAVICANYDIPHIVNNAYGVQSSKCMHLIQQGARVGRIDAFVQSLDKNFMVPVGGAIIAGFNDSFIQEISKMYPGRASASPSLDVLITLLSLGSNGYKKLLKERKEMFSYLSNQIKKLSEAYNERLLHTPHNPISLAMTLKTLDEHRDKAVTQLGSMLFTRQVSGARVVPLGSMQTVSGYTFRGFMSHTNNYPCAYLNAASAIGMKMQDVDLFIKRLDRCLKAVRKERSKESDDNYDKTEDVDIEEMALKLDNVLLDTYQDASS”, the “soluble on expression in E. coli” value was “soluble”.

“MNRHLIHRRDILDTLVADLQAQQPDHIAVTGDLVNIALVNEFAPARQWLESVGPADRVSLVPGNHDAYVRSTAHRFAETFPDYISGDDATPGFPYLRRREAIAIIGVSSAVPTAPLRATGWLGAPQRAALEALLQSLAGERVFKVLLIHHPLQSRSRHKRLTDAADLIALLQRHPVDLVLHGHDHVHATVRIDTPFGAIPVVGVPSASAMNDRHRPSAAYNLFKISEGNLEHHHHHH”: the “soluble on expression in E. coli” value is recorded as “soluble”.

Regarding “MNRKGNMKRKTLKNIVEYDGIGLHKGEIIKMKLIPAKSGGIIFRMVNMPEGKNEILLDYRNIFDLTRGTNLKNEHGAMVFTIEHFLSALYVLGITDLVIELNGNELPICDGSAIKFLDLFQESGIVELDEYVEEIIVKEPIFLSKGDKHVIALPYPDGYKLTYAIRFEHTFLKSQLAEFEITEKNYRKEIASARTFGFDYEVEYLKQNNLALGGTLENAIVIKKDGVLNPDGLRFDDEFVRHKMLDIIGDLKILNRPIRAHIIAIKAGHLIDIEFAKILDNIKLEHHHHHH”, the “soluble on expression in E. coli” value is “soluble”.

Turning to “MNRLPRIEQYGLIGDTQTSAHVCDDGSIDWLCLPRFDSPAVFASLLGTQKHGSWQISPAPSTGRSGPEKVTERRYRGDSLVLESVWRTPTGSVRVLDFMPPRDGTPQVIRIVEGLTGDVEMLSAMRPRPGYLEHHHHHH”, the “soluble on expression in E. coli” value is reported as “not soluble”.

Regarding “MNRLPTCLLAATLFLGSASLYAEDPACARVRLADPGWSDIAVTNATAAFLLESLGYQVKIDTLSVPIIYGGLRDGQVDAFLGGWMPAHQDYHDKFVASGQVERLGRNLDGTRFTLAVPRYVWDAGVHRFEDLAAQGQRFNRKLYGIGSGAPANQSIQKMIDANQFGLGDWKLVESSEQAMLAELGRAEKRQRWLVFLGWTPHPMNIRHDLRYLEGGEQYFGDRGQVYTLARKGYAAQCPNPARLLANLRFDLDMENRLMSDALEGTATPASATRAWLKANPRVLEAWLQGVTSRDGGDALAAVRGQP”, the “soluble on expression in E. coli” value is listed as “not soluble”.

“MNRMEYNPIKKVVSGNYAAAYAALHARVQVVAAYPITPQTSIIEKIAEFIANGEADIQYIPVESEHSAMAACIGASATGARVFTATSAQGLALMHEMLHWAAGSRLPIVMVNVNRAMAPPWSVWDDQTDSLSQRDTGWMQFYAENNQEVYDGVLMAYKVAETVNIPTMIIESAFILSHTYEVVNMIPQELVDEFLPPRKPLYTLTDFENPIAVGALATPADYYEFRYKIAKAHEEAKKVIKSVGKEFGERFGRDYSKMIETGYIEDADFVFMGMGSLMGTVKEAVDLLRKEGYKVGYAKVRWFRPFPKEELLEIAESVKGIAVLDRNFSFGQEGILFTEAKGALYNTGVRPIMKDYIVGLGGRDFTVRDVKAIAEDMKKVVESGKLDKEIEWYHLKR”: the “soluble on expression in E. coli” value is given as “soluble”.

In the case of “MNRPHSATGDRPLALVDEHAHAWSPKTARARFRKGLTGPTAGVAAGHTQANLISVPADWAYDMLLFCTRNPQPCPVLDVTDAGSWTTVLADGADLRTDLPRYRVWRDGELVDEPSDVREHWRDDLVTFLIGCSFTFEWALAAAGVPIRHVEQGRNVPMYVTSRACRPAGRLRGPMVVSMRPVPPAHLSAAIHESSLLPAVHGSPVHCGDPSALGIDDLDRPDFGEAVYREPDDIPVFWACGVTPQAAVMASRPPFALTHAPGQMFLTDARDEQYRVALEHHHHHH”, the “soluble on expression in E. coli” value is listed as “soluble”.

Consider “MNRQIPKVPDAIELEYDLDEPPQKVWRAISIPAFREHWLPKEALAQPEAIKVSPGREVCYRLREDTPPFLESTVTFQIASNDRGGTSLRIIHDLPAIKSGRMTKAAANHNGSPIKLAALEHHHHHH”, for which the “soluble on expression in E. coli” value was “not soluble”.

For the sequence “MNRVYVGTVSAVTDIGVFVNLNKRLRGLIHRRNLGNNRFSEDEEILVQVSGIGLSGEIDLKPVKMDGYKVVEISKEVGRVEIAELENLEHHHHHH”, the “soluble on expression in E. coli” value is “not soluble”.
